Measurements published in patent publication US20240392013A1 (STELEXIS THERAPEUTICS, published 2024).
Numbering of substitutions follows the chain as printed. Each block holds one binder with its values, some of them ahead of it.

What was measured:
[1] = target: T1, recombinant human IL1RAP protein, extracellular domain His-tagged (Sino Biological, Cat #10121-H08H) (human, UniProt Q9NPH3 21-367); assay: Octet BLI; mAb captured on anti-mouse IgG Fc sensor; huIL1RAP-His analyte
T1 construct: extracellular domain; Bought protein; The Octet analyte is printed as huIL1RAP-His (Sino Biological, lot MB08MA1301) without a catalogue number; also called huIL1RAP-His; hIL1RAP; not shown: His tag
T1 sequence (looked up): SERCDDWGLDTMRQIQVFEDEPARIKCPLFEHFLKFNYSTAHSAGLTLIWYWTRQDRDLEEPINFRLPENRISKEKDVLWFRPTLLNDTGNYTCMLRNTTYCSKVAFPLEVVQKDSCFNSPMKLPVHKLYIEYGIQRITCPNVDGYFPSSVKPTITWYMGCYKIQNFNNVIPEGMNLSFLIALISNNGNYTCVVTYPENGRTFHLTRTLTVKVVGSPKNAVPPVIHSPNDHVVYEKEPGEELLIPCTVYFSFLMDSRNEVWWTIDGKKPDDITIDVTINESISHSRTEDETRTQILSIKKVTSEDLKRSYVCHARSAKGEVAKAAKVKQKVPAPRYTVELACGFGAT
In short: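 Antibodies at 5 μg/ml were captured on anti-mouse IgG Fc biosensors; His-tagged human or cynomolgus IL1RAP extracellular domain served as analyte at 100, 50 and 25 nM in PBS kinetics buffer (0.1% BSA, 0.02% Tween-20). Association 120 s, dissociation 1200 s; KD (M) calculated from binding kinetics.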

[2] = target: T2, IL1RAP-Fc protein (Sino Biological, Cat #10121-H02H), recombinant human IL1RAP extracellular domain Fc-tagged (human, UniProt Q9NPH3 21-367); assay: cell-free competition ELISA: IL1RAP-Fc coated, mAb titrated, blocks binding of premixed IL1R1-His/IL1β complex
T2 construct: extracellular domain; not shown: Fc tag
T2 sequence (looked up): T1 sequence (looked up)
Method: High-binding 96-well plates were coated with IL1RAP-Fc protein (Sino Biological, Cat #10121-H02H) at concentration of 4 µg/ml and incubated overnight at 4° C. After 3× washes with 0.05% Tween-20 in PBS, pH 7.5, plates were blocked with 1% BSA in PBS for 1 hour at room temperature. Following, wells were incubated with each antibody at concentration of 50 nM for 1 hour at room temperature. […] IL1R1/IL1β complex was preincubated in assay buffer (1% BSA in PBS, pH 7.5) for 20 min at room temperature. After 3× washes, plates were incubated with anti-His HRP detection antibody (Medna, Cat #D8212, […]) for 1 hour at room temperature. Following 5× washes, SuperPico chemiluminescent substrate was applied to wells and signal was read on Spectramax M5.

[3] = target: T3, IL1RAP on HEK-Blue IL1β / HEK-Blue IL33 reporter cells (UniProt Q9NPH3 21-570, limits assumed); assay: cell-based or functional assay
T3 sequence (looked up): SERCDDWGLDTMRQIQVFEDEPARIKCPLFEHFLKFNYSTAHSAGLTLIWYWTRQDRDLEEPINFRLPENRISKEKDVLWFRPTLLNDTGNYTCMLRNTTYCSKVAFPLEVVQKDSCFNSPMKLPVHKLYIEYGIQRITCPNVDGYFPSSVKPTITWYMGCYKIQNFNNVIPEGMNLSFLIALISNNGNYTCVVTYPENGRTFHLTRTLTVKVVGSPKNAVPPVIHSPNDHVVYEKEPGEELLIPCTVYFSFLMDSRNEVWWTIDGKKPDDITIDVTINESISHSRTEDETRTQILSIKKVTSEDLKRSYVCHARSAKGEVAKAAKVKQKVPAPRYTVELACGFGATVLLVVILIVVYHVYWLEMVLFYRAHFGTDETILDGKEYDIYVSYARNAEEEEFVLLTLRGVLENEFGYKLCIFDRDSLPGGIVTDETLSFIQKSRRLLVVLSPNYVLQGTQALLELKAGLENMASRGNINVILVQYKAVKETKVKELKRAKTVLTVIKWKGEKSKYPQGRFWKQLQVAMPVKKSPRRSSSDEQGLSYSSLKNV

Kd [1]: 0.934 nM | Response [1]: 0.303 | koff [1]: 0.000287 s⁻¹ | kon [1]: 308000 M⁻¹ s⁻¹ | IC50 [2]: 0.824 nM | IC50, HEK-BlueIL1β NFκB Reporter Assay [3]: 1.31e-09 M (implied; unit not printed) | Max % Inhibition at 200 nM, HEK-BlueIL1β NFκB Reporter Assay [3]: 100%
B1: STLX2012 (antibody, V domains shown)
VH: QVQLLQSGAEVKKPGSSVKVSCKASGGTFSIYAIDWVRQAPGQGLEWMGGIIPIFGTANSAQKFQGRVTITADKSTSTAYMELSSLRSEDTAVYYCARNGATSDAFDMWGQGTMVTVSS
VL: EIVLTQSPGTLSLSPGERATLSCRASLSVSSNYLAWFQQRPGQAPRLLIHGVSRRATGIPDRFSGSGSGTDFTLTISRLEPEDFAVYYCQQYGSSPLTFGGGTKVEIK
notes: Purified from hybridoma of immunized Alivamab mice; intact IgG; captured on anti-mouse IgG Fc sensors in Octet; kappa light chain; also called 74804_12A21B

Kd [1]: 0.425 nM | Response [1]: 0.251 | koff [1]: 0.000149 s⁻¹ | kon [1]: 350000 M⁻¹ s⁻¹ | IC50 [2]: 0.804 nM | IC50, HEK-BlueIL1β NFκB Reporter Assay [3]: 2.29e-09 M (implied; unit not printed) | Max % Inhibition at 200 nM, HEK-BlueIL1β NFκB Reporter Assay [3]: 99%
B2: STLX2043 (antibody, V domains shown)
VH: B1 VH with A58E, K63N, V68I, S77N, M108I, S118F
VL: B1 VL with H50Y
notes: Purified from hybridoma of immunized Alivamab mice; intact IgG; captured on anti-mouse IgG Fc sensors in Octet; kappa light chain; also called 74804_43F04A
